Experiment in all cases: cell-based or functional assay
Assay [1] deals with Env of HIV pseudovirus JRFL (HIV strain JRFL).
For assay [2], the target named is Env of HIV pseudovirus ADA (HIV strain ADA).
Assay [3] concerns the target Env of HIV pseudovirus MN (HIV strain MN) (UniProt P05877).
For assay [4], the target named is Env of HIV pseudovirus YU2 (HIV strain YU2) (UniProt P35961).
The target in assay [5] is Env of HIV pseudovirus TRO.11 (HIV strain TRO.11).
The target in assay [6] is Env of HIV pseudovirus DU422.1 (HIV strain DU422.1).
Assay [7] deals with Env of HIV pseudovirus ZM214M (HIV strain ZM214M).
In assay [8] the target is Env of HIV pseudovirus CAP45 (HIV strain CAP45).
The target in assay [9] is Env of HIV pseudovirus PVO (HIV strain PVO).
Assay [10] deals with Env of HIV pseudovirus DU156.12 (HIV strain DU156.12).
Assay [11] concerns the target Env of HIV pseudovirus JRCSF (HIV strain JRCSF) (UniProt P20871).
UniProt P20871, sequence (P20871 32-848 limits assumed): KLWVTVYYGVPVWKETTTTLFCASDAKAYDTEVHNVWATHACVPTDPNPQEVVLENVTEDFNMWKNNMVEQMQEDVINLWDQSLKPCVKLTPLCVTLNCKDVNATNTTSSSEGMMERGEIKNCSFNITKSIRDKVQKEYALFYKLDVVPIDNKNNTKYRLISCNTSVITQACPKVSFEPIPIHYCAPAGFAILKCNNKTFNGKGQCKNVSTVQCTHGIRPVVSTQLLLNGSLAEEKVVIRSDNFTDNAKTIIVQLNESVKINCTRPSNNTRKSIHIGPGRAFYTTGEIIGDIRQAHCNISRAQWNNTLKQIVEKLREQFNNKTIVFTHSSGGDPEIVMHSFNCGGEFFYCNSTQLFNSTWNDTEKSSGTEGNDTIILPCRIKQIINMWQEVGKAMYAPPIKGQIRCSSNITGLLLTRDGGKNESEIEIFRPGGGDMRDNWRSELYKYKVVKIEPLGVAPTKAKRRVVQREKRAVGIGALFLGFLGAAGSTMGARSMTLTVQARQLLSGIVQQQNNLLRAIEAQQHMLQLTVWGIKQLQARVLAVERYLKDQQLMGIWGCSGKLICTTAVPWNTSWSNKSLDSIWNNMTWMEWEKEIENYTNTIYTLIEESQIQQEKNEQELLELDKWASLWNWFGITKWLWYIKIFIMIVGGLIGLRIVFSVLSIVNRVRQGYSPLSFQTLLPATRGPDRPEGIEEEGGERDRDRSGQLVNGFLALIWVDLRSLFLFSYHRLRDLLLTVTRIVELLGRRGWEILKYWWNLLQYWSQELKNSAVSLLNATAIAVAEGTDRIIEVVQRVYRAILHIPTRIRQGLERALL

UniProt P05877, sequence (P05877 32-856 limits assumed): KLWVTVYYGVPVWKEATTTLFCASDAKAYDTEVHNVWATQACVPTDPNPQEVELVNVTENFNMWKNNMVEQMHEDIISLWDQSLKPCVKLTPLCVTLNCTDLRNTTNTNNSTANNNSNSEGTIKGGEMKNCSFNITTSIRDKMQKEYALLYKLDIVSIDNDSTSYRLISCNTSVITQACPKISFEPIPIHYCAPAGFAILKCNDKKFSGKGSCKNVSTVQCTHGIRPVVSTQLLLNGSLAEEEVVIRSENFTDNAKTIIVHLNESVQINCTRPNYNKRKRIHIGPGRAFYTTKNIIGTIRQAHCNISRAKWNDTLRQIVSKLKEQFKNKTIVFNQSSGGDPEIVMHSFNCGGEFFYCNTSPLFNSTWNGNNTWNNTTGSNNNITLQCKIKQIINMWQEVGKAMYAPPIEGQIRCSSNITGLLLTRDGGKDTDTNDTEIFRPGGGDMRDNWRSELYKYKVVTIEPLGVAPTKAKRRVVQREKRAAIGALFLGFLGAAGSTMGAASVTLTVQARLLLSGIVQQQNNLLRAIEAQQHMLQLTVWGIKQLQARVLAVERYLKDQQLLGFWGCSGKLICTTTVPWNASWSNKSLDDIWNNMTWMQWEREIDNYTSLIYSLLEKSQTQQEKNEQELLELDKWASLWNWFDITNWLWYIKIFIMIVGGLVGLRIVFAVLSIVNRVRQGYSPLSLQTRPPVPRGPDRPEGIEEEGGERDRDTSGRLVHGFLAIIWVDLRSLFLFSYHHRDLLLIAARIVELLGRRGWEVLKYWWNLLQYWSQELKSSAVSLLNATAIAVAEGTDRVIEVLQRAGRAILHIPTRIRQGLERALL
UniProt P35961, sequence (P35961 32-843 limits assumed): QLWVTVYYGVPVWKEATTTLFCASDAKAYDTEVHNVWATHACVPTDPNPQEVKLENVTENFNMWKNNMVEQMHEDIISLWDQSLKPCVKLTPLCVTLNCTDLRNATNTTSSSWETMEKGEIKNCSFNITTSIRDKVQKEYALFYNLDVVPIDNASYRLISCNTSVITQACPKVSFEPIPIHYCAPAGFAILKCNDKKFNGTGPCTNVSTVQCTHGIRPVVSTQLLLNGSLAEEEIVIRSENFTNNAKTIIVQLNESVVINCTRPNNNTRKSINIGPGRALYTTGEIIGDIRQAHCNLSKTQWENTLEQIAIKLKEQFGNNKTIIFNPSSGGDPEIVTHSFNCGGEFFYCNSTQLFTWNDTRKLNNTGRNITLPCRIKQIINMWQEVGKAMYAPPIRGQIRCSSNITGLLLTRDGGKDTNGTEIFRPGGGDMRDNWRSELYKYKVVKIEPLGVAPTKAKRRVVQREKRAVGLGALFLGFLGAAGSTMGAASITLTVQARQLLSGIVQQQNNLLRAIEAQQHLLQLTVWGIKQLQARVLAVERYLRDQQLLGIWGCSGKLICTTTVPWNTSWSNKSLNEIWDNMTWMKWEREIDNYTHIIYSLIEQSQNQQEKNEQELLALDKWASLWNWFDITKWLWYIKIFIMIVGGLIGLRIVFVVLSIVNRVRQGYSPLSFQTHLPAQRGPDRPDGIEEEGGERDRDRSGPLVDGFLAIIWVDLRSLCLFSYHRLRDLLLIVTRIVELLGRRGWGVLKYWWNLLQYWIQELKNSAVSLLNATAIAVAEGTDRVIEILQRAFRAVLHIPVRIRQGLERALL

For the substance ^CHOPG9 (antibody), the IC50, pseudovirus neutralization (TZM-bl luciferase) was above 50 µg/mL in assay [1]; 42.8 µg/mL in assay [2]; above 50 µg/mL in assay [3]; above 50 µg/mL in [4]; above 50 µg/mL in assay [5]; 10.9 µg/mL in assay [6]. Besides, the IC50, pseudovirus neutralization (TZM-bl luciferase) was above 50 µg/mL in [7]; below 0.02 µg/mL in assay [8]; above 50 µg/mL in assay [9]; 0.35 µg/mL in [10]; below 0.02 µg/mL in assay [11].

On to ^ΔXFPG9 (antibody), for which the IC50, pseudovirus neutralization (TZM-bl luciferase) in [1], in [2], in assay [3], in assay [4], in [5] and in assay [6] was above 50 µg/mL throughout. For the same substance, the IC50, pseudovirus neutralization (TZM-bl luciferase) in [7] is above 50 µg/mL; in [8] it was 0.65 µg/mL; in assay [9], above 50 µg/mL; in [10], above 50 µg/mL; in assay [11], 0.19 µg/mL.

For the substance ^ΔXFPG9Sulf (antibody), the IC50, pseudovirus neutralization (TZM-bl luciferase) is above 50 µg/mL in assay [1]; 37.4 µg/mL in [2]; above 50 µg/mL in [3]; above 50 µg/mL in assay [4]; above 50 µg/mL in assay [5]; 14.3 µg/mL in assay [6]. In addition, the IC50, pseudovirus neutralization (TZM-bl luciferase) in assay [7] is above 50 µg/mL; in assay [8], 0.03 µg/mL; in [9], above 50 µg/mL; in assay [10], 1.2 µg/mL; in assay [11], below 0.02 µg/mL.

Take ^ΔXFPG9SulfSia (antibody): the IC50, pseudovirus neutralization (TZM-bl luciferase) in [1] was above 50 µg/mL; in assay [2], 40.2 µg/mL; in assay [3], above 50 µg/mL; in [4], above 50 µg/mL; in assay [5] it was above 50 µg/mL; in assay [6], 6.6 µg/mL. Besides, the IC50, pseudovirus neutralization (TZM-bl luciferase) is above 50 µg/mL in assay [7]; below 0.02 µg/mL in [8]; above 50 µg/mL in [9]; 0.9 µg/mL in assay [10]; 0.03 µg/mL in assay [11].

The record behind these values is patent US20180119164A1.
